The record followed here is article doi:10.1101/2023.05.10.540081v1.

Substrate in this data set: O=[N+]([O-])c1ccc(O[C@@H]2O[C@H](CO)[C@@H](O)[C@H](O)[C@H]2O)cc1
The experiment in a line: purified protein. The following applies: technical triplicates.

Where [1] appears, read: biological replicate a of two, low protein yield.

B1: β-glucosidase B (BglB) (Paenibacillus polymyxa) (protein)
chain: MSENTFIFPATFMWGTSTSSYQIEGGTDEGGRTPSIWDTFCQIPGKVIGGDCGDVACDHFHHFKEDVQLMKQLGFLHYRFSVAWPRIMPAAGIINEEGLLFYEHLLDEIELAGLIPMLTLYHWDLPQWIEDEGGWTQRETIQHFKTYASVIMDRFGERINWWNTINEPYCASILGYGTGEHAPGHENWREAFTAAHHILMCHGIASNLHKEKGLTGKIGITLNMEHVDAASERPEDVAAAIRRDGFINRWFAEPLFNGKYPEDMVEWYGTYLNGLDFVQPGDMELIQQPGDFLGINYYTRSIIRSTNDASLLQVEQVHMEEPVTDMGWEIHPESFYKLLTRIEKDFSKGLPILITENGAAMRDELVNGQIEDTGRHGYIEEHLKACHRFIEEGGQLKGYFVWSFLDNFEWAWGYSKRFGIVHINYETQERTPKQSALWFKQMMAKNGF
Broadly, the Km is the substrate concentration at which the rate is half of its maximum. What is called kcat is the maximal rate divided by the concentration of active sites. In the case of B1, the Km is 4.38 mM and the kcat stood at 6.1433 s⁻¹.

B2: β-glucosidase B (BglB) (Paenibacillus polymyxa; V314D) (protein)
chain: MSENTFIFPATFMWGTSTSSYQIEGGTDEGGRTPSIWDTFCQIPGKVIGGDCGDVACDHFHHFKEDVQLMKQLGFLHYRFSVAWPRIMPAAGIINEEGLLFYEHLLDEIELAGLIPMLTLYHWDLPQWIEDEGGWTQRETIQHFKTYASVIMDRFGERINWWNTINEPYCASILGYGTGEHAPGHENWREAFTAAHHILMCHGIASNLHKEKGLTGKIGITLNMEHVDAASERPEDVAAAIRRDGFINRWFAEPLFNGKYPEDMVEWYGTYLNGLDFVQPGDMELIQQPGDFLGINYYTRSIIRSTNDASLLQDEQVHMEEPVTDMGWEIHPESFYKLLTRIEKDFSKGLPILITENGAAMRDELVNGQIEDTGRHGYIEEHLKACHRFIEEGGQLKGYFVWSFLDNFEWAWGYSKRFGIVHINYETQERTPKQSALWFKQMMAKNGF
Take B2: the Km is 6.84 mM and the kcat came to 4.9167 s⁻¹.

B3: β-glucosidase B (BglB) (Paenibacillus polymyxa; M224K) (protein)
chain: MSENTFIFPATFMWGTSTSSYQIEGGTDEGGRTPSIWDTFCQIPGKVIGGDCGDVACDHFHHFKEDVQLMKQLGFLHYRFSVAWPRIMPAAGIINEEGLLFYEHLLDEIELAGLIPMLTLYHWDLPQWIEDEGGWTQRETIQHFKTYASVIMDRFGERINWWNTINEPYCASILGYGTGEHAPGHENWREAFTAAHHILMCHGIASNLHKEKGLTGKIGITLNKEHVDAASERPEDVAAAIRRDGFINRWFAEPLFNGKYPEDMVEWYGTYLNGLDFVQPGDMELIQQPGDFLGINYYTRSIIRSTNDASLLQVEQVHMEEPVTDMGWEIHPESFYKLLTRIEKDFSKGLPILITENGAAMRDELVNGQIEDTGRHGYIEEHLKACHRFIEEGGQLKGYFVWSFLDNFEWAWGYSKRFGIVHINYETQERTPKQSALWFKQMMAKNGF
For B3, under setting [1], the Km amounted to 7.54 mM and the catalytic constant (kcat) worked out at 1.695 s⁻¹.

B4: β-glucosidase B (BglB) (Paenibacillus polymyxa; Y169H) (protein)
chain: MSENTFIFPATFMWGTSTSSYQIEGGTDEGGRTPSIWDTFCQIPGKVIGGDCGDVACDHFHHFKEDVQLMKQLGFLHYRFSVAWPRIMPAAGIINEEGLLFYEHLLDEIELAGLIPMLTLYHWDLPQWIEDEGGWTQRETIQHFKTYASVIMDRFGERINWWNTINEPHCASILGYGTGEHAPGHENWREAFTAAHHILMCHGIASNLHKEKGLTGKIGITLNMEHVDAASERPEDVAAAIRRDGFINRWFAEPLFNGKYPEDMVEWYGTYLNGLDFVQPGDMELIQQPGDFLGINYYTRSIIRSTNDASLLQVEQVHMEEPVTDMGWEIHPESFYKLLTRIEKDFSKGLPILITENGAAMRDELVNGQIEDTGRHGYIEEHLKACHRFIEEGGQLKGYFVWSFLDNFEWAWGYSKRFGIVHINYETQERTPKQSALWFKQMMAKNGF
In the case of B4, for the setting “biological replicate a of two”, the Km is given as 22.35 mM and the turnover number (kcat) was found to be 9.8983 s⁻¹.
